# Reference: patent US20220275053A1, “MODIFIED […] PEPTIDE LIGANDS” (BicycleTx Limited, priority 2019, published 2022)
# *1 amine or outer side, *2 acyl side, *3 side chain or, on linkers, in order; H or OH if unused. Bridges are numbered along the chain shown (N, C = ends). [ ]: non-standard residue; d: D form. TATA = O=C(CC[*:1])N1CN(C(=O)CC[*:2])CN(C(=O)CC[*:3])C1; tBuAla = CC(C)(C)C[C@H](N)C(=O)O; Nle = CCCC[C@H](N)C(=O)O
# Biological target: T1, CD137 (Homo sapiens, UniProt Q07011)
# T1 construct: Human peripheral blood mononuclear cells (PBMCs) were isolated from buffy coats from two donors; endogenous in cells
# T1 sequence (Q07011 24-255): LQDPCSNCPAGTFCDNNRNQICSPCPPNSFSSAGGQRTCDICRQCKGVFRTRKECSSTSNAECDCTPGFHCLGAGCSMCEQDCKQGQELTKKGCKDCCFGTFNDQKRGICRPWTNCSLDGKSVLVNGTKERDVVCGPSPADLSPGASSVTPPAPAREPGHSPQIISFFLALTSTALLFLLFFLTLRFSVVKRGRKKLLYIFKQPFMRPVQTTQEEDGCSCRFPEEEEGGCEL
# Assay: Fluorescent multimers human T-cell competition (receptor occupancy) assay with BCY7340 as labelling reagent
# Assay type: binding
# Details: unlabelled multimer titrated, 30 minutes at room temperature; 10 nM BCY7340 label; FIG. 5
# Protocol: Human PBMCs were isolated from fresh buffy coats from two donors according to standard protocols. CD8+ T cells were then isolated from the PBMCs by negative magnetic bead selection with a MACS CD8+ T cell isolation kit (negative bead selection) according to the manufacturer's protocol (Miltenyi Biotec). Purified CD8+ T cells were then stimulated for 72 hours in plates coated with CD3 antibody (1 μg/ml) in R10 media (RPMI1640+10% FBS+1× Pen-Strep). Cells were then incubated with a range of concentrations of unlabelled CD137 multimer for 30 minutes at room temperature in 2% FBS. Cells were then washed and stained for FACS analysis. Briefly, cells were stained in 1× Live/Dead BV510 for 15 minutes, washed, and then surface stained with a primary antibody cocktail (CD8-BV785, CD3-BV605, and CD137-PECy5) that included a saturating concentration (10 nM) of BCY7340. Cells were incubated for 30 minutes at room temperature, washed, and fixed in 2% PFA. Cells were run on the BD FACSCelesta and FCS files were analyzed in FlowJo. Cells were gated on Single/Live/Lymphocytes/CD8+(or CD3+)/CD137+ or CD137−. The Alexa Fluor 488 geometric mean of the CD137+ population is shown.
substance,measurement,value
"BCY8945: Non-modified CD137 multimer: 4 x BCY8927, hinge A, SA n=23, attachment Lys(PYA)3 (Ac-C[tBuAla]PK[dA]PYCFADPY[Nle]CA-NH2; linker 1-8-15 via TATA; not fully specified (residue 4); also: tetramer: 4 peptides on central hinge moiety A via spacer SA n=23)",level of free/unbound CD137 receptor on human T cells (BCY7340 binding),dose responsive decrease in unbound CD137 receptor
